Literature values as cited in PMC6426755.

Target: CCL21 (Homo sapiens) (UniProt O00585)
Experiment: SPR (Biacore)

Chain of UniProt O00585 (O00585 24-134): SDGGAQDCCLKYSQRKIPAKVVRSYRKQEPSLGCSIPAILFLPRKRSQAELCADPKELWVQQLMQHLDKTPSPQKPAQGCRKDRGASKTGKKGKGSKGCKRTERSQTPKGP

Kd: 70 nM
Substance: podoplanin (from UniProt Q86YL7)
